Measurements taken from article PMC4158885 (The EMBO Journal, 2014).

Target: T1, ctPan2 Δ353–375 (PID deletion in full-length ctPan2) (Chaetomium thermophilum, UniProt G0SAK8 1-1170, Δ353–375)
T1 construct: Pan2, Chaetomium thermophilum, full-length context with an internal deletion of residues 353-375
T1 sequence (looked up): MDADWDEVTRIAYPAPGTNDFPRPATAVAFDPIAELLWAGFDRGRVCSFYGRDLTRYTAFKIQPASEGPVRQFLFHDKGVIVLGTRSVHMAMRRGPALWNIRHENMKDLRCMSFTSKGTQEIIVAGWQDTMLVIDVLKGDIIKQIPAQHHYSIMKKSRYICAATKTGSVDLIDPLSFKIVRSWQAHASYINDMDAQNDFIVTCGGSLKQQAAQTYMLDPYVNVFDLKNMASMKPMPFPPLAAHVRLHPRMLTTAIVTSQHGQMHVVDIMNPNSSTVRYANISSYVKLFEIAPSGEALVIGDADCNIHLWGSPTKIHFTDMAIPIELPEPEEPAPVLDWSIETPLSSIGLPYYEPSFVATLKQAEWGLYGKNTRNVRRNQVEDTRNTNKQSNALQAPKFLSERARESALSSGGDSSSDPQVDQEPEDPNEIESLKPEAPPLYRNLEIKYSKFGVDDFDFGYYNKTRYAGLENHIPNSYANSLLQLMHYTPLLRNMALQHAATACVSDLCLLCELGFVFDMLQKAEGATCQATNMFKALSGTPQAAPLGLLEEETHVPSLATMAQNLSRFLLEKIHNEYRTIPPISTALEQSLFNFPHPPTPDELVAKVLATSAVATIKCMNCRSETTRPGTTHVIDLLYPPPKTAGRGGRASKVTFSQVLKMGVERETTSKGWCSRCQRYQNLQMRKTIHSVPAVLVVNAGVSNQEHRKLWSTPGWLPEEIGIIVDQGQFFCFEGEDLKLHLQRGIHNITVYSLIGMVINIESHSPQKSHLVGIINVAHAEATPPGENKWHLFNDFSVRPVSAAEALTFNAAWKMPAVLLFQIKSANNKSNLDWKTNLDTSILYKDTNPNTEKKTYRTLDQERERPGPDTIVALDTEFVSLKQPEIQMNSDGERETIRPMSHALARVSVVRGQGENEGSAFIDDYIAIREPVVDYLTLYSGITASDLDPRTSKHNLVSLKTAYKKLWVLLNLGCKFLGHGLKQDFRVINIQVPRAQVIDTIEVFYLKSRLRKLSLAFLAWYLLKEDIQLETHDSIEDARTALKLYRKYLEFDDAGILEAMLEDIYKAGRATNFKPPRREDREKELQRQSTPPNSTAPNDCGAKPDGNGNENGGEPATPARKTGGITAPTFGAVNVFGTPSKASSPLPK
Experiment: SEC; separately purified ctPan2 constructs and ctPan3 PKC dimer mixed 1:1 at 1 μM, 15 min at room temperature; Superdex 200 Increase 3.2/300 in 20 mM Tris pH 8.0, 500 mM NaCl, 2 mM TCEP; fractions on SDS–PAGE
Conditions: both partners purified

B1: ctPan3 pseudokinase/C-terminal domain (PKC, residues 205–640), purified from E. coli (domain or fragment, Chaetomium thermophilum, UniProt G0S0Y3 205-640, looked up)
chain: RQELQPWQRATYDFFMPQNLREDLQKKQFATLQVIPNSGLPQLEHWHSLVPLDTSNRKNTSCFGYPSWVYKAQNSRNGRHYALRRLEGYRLTNEKAILNVMKDWKKIKNASIVTIHEVFTTREFGDSSLIFAYDFHPLSKTLQEHHFQPIHGNRYRPPPAVPENTIWGYICQIANALKTIHSNRLAARCLEPSKIILTDINRIRLSACAILDVVQFGMNSRSVVELQQEDFVKFGKLILSLATGTLPAHLNNIPAALETLGNKYSANLKSAVNWLLDTSSGETKTIEHFMTGIASQMTTFFDLALQDNDEKLFHLAREVENGRIARSLMKLLTILERGDYDGVPSWSETGDRYQLKLFRDYVFHRVDADGKPNLSIGHMLTCMSKLEAGVDENILLTSRDNETVFVLSYRELRQMYDRAFNELVKASKTGAPGANT
notes: Pan3, Chaetomium thermophilum, pseudokinase (242-497), coiled coil (499-538) and C-terminal domain (555-640), construct residues 205-640; The crystals of ctPan3 PKC alone (PDB 4CYI) were of Se-Met-labelled protein; also called ctPan3 PKC; ctPan3 PKC dimer; source: E. coli, purified (glutathione Sepharose)
binding result: binds
